This note sets out measurements from paper PMC6376876.

The data set deals with CC(=O)Oc1ccc([N+](=O)[O-])cc1. Put plainly: purified protein.

LsALDH16 (Loktanella sp. 3ANDIMAR09): the Km (usually the concentration of substrate that gives half-maximal velocity) stood at 1740 µM; the Vmax (usually the top rate of the reaction or transport when substrate is in excess) came to 7.9 µmol/min/mg; the catalytic constant (kcat) (commonly the maximal rate divided by the concentration of active sites) was 10.6 ± 1.6 s⁻¹; the kcat/Km (as a rule, the second-order rate constant that governs catalysis at low substrate concentration) was 6000 ± 2000 M⁻¹ s⁻¹.
